From patent US20090104178A1

Columns and labels:
Assay in all cases: SPR (BIAcore X), E12 thiol-coupled to the chip, chemokine injected
[1] = target: mCCL21 (mouse) (UniProt P84444)
[2] = target: mCCL25 (mouse) (UniProt O35903)
[3] = target: mCCL27 (mouse) (UniProt Q9Z1X0)
[4] = target: mCXCL11 (mouse) (UniProt Q9JHH5)
[5] = target: mCXCL13 (mouse) (UniProt O55038)
[6] = target: mCXCL14 (mouse) (UniProt Q9WUQ5)
Sequence of mCXCL14 (mouse) (Q9WUQ5 23-99 limits assumed): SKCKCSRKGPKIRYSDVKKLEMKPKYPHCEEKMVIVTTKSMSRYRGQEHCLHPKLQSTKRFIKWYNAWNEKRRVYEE

Sequence of mCCL21 (mouse) (P84444 24-133): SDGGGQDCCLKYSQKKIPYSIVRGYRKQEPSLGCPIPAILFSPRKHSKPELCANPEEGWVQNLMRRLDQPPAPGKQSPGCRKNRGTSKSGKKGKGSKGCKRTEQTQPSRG
Sequence of mCXCL11 (mouse) (Q9JHH5 22-100 limits assumed): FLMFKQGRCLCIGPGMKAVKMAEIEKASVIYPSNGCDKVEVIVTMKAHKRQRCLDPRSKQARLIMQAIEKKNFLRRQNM
Sequence of mCCL25 (mouse) (O35903 24-144 limits assumed): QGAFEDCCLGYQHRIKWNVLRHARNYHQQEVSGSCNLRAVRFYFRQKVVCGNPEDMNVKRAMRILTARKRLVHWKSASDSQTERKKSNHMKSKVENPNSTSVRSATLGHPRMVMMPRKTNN
Sequence of mCXCL13 (mouse) (O55038 22-109 limits assumed): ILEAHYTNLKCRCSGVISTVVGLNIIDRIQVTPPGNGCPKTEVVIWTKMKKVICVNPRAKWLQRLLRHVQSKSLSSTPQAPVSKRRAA
Sequence of mCCL27 (mouse) (Q9Z1X0 26-120 limits assumed): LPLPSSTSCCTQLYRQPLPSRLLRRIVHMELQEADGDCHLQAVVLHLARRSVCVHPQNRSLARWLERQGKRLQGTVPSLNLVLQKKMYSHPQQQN

**Q.** Which results are given for Purified EV E12 protein?
**A.** Kd [1]: 0.5 nM; Kd [2]: 0.7 nM; Kd [3]: 2 nM; Kd [4]: 1 nM; Kd [5]: 1.5 nM; Kd [6]: 1.5 nM
